The target in assay [1] is VEGF:sFlk-1 complex (human; mouse) (UniProt P15692). The assay can be described thus: capture ELISA: biotinylated sFlk-1 complexed with VEGF titrated onto wells coated with the antibody; concentration giving 50% maximal binding; extrapolated value.
In assay [2] the target is recombinant human VEGF165 (human) (UniProt P15692). The experiment in a line: blocking ELISA, negative control: 1 nM VEGF bound to wells coated with VEGFR1 (Flt-1/Fc) with 1000 nM control IgG of irrelevant specificity (1000x) present; bound VEGF detected with rabbit anti-VEGF A-20; the number measures VEGF:VEGFR1 binding, not binding of the control IgG to VEGF. A general note: An ELISA detects its analyte on a solid surface through an enzyme-linked reagent.

For assay [3] the target is unchanged. The experiment in a line: blocking ELISA, negative control: 1 nM VEGF bound to wells coated with VEGFR2 (sFlk-1) with 100 nM control IgG of irrelevant specificity (100x) present; bound VEGF detected with rabbit anti-VEGF A-20; the number measures VEGF:VEGFR2 binding, not binding of the control IgG to VEGF.
Assay [4] has the same target. The assay can be described thus: blocking ELISA, negative control: 1 nM VEGF bound to wells coated with VEGFR2 (sFlk-1) with 1000 nM control IgG of irrelevant specificity (1000x) present; bound VEGF detected with rabbit anti-VEGF A-20; the number measures VEGF:VEGFR2 binding, not binding of the control IgG to VEGF.
Assay [5] shares this target. The assay can be described thus: blocking ELISA, negative control: 1 nM VEGF bound to wells coated with VEGFR1 (Flt-1/Fc) with 100 nM control IgG of irrelevant specificity (100x) present; bound VEGF detected with rabbit anti-VEGF A-20; the number measures VEGF:VEGFR1 binding, not binding of the control IgG to VEGF.

By EC50 is commonly meant the concentration needed to bring the measured effect to its halfway point.

recombinant human VEGF165 (human), sequence (P15692 other isoform, or with tags, fused parts or gaps): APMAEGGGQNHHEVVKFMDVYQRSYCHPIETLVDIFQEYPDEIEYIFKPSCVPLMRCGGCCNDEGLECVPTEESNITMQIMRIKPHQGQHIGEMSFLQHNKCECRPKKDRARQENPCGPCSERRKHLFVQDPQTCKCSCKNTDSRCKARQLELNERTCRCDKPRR
VEGF:sFlk-1 complex (human; mouse), sequence (P15692 other isoform, or with tags, fused parts or gaps limits assumed, chain 1 of 2): as the sequence (P15692 other isoform, or with tags, fused parts or gaps) above
VEGF:sFlk-1 complex (human; mouse), sequence (P35918 20-762 limits assumed, chain 2 of 2, further chain): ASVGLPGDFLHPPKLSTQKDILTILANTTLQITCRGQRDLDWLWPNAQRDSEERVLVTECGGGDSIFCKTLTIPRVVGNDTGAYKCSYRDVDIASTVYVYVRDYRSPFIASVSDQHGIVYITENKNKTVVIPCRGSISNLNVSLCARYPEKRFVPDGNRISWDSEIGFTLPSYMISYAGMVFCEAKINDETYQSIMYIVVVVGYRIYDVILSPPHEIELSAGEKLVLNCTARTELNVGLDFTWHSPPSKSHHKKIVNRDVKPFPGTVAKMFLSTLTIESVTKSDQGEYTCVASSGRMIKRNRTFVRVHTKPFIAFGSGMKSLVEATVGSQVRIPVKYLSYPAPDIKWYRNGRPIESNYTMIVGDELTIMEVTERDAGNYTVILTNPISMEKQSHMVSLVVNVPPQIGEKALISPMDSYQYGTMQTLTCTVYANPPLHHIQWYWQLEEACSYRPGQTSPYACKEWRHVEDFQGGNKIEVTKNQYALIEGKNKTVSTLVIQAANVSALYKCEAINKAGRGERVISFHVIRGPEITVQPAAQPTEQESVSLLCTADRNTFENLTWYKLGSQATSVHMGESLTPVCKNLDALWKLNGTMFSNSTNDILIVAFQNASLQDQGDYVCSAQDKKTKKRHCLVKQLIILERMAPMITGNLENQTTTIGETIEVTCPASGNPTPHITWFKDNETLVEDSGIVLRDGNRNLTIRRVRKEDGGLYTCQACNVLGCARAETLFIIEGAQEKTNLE

On to “A4.6.1, mouse anti-human VEGF monoclonal antibody (Genentech)”, for which the EC50 in assay [1] was 500 nM.

Regarding “control IgG of irrelevant specificity (antibody)”, the % of VEGF alone was 92% in assay [2], 96% in assay [3], 93% in assay [4] and 98% in assay [5].

In the case of “irrelevant IgM (negative control) (antibody)”, in assay [1], the EC50 was 600 nM.

Values taken from patent US20020119153A1.
